Data reported in article PMC9145999.

Target: main protease from canine coronavirus (CCoV M^pro) (canine coronavirus)
Assay: crystal structure; CCoV M^pro incubated with two-fold molar excess of GC376 at 4 °C for 1 h; crystals from 0.2 M sodium citrate, 0.1 M Bis Tris propane 7.0, 25% w/v PEG 3350 at 20 °C; 2.75 Å, space group C2, eight protomers in the asymmetric unit

main protease from canine coronavirus (CCoV M^pro) (enzyme)
stoichiometry N: 2
